Assay results as given in patent publication US20040229289A1, “Antigen binding peptides (abtides) from peptide libraries” (Cytogen Corporation, priority 1994, published 2004).
Where no end group is shown, it is not given here.

T1: PEM peptide (human)
T1 peptide: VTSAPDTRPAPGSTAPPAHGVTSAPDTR

T2: mimetope peptide 7E11-9.5 (not fully specified)
T2 peptide: LYANPGMYSRLHSPA


Target: T1, PEM peptide
Experiment: phage ELISA on PEM

| Binder | binding result |
| --- | --- |
| GDPECRGKPRGRWTGSLACTGCGNGPNSKICTRARGVSRNKGP [E60] | no binding |
| QARVSMAISCRSGPSDLMHQGCGYGPRCNPDTTDSGGSHTNTP [E49] | no binding |
| STPGCSGYSGSGDPRCLTCTACGNGHTRKTLTPAHGRSTHKEP [E72] | no binding |

Target: T1, PEM peptide
Experiment: phage panning on PEM peptide, D38 library, acid eluted
Description: (§1) A peptide comprising this sequence was synthesized and used to isolate abtides from TSAR peptide libraries by methods analogous to those described above. In these experiments, the specific TSAR libraries used were R26, D38 and DC43. See FIGS. 10-12 for description of these libraries. Phage bound to PEM were eluted by either standard acid elution methods, stringent acid elution methods where phage were incubated with the PEM peptide for only 10 minutes prior to washing and elution, or were eluted using excess PEM peptide. Phage from each library were isolated that express peptides capable of binding to PEM.

| Binder | binding result |
| --- | --- |
| DQIGSRPQTTSRSISGSWWENAKTLWQQDYAFSAPNAA (acid eluted) [MA-32] | binds |
| VQLDDTSPRASGQETSQSEYDARPLLSKFAIPRPWSR (acid eluted) [V21] | binds |
| LSDAWGNFTTSYRDSAGFPSHAMTTSQGGKRNHASRFP (acid eluted) [V23] | binds |
| IDSSKNRISGTGYLSFPHIRHANRRHMADDSNLAPGPS (acid eluted) [V1] | binds |

Target: T1, PEM peptide
Experiment: phage panning on PEM peptide, R26 library, acid eluted
Description: as §1

| Binder | binding result |
| --- | --- |
| SLGLPWIDVFGRSSAEPWPFGRTNLPRS (acid eluted) [A39] | binds |
| SSSIFDYAPFSWGSAGLSNSSINVFERS (acid eluted) [A54] | binds |
| SFMDYFFHTPEPKPAGYPNAYTDPKHPA (acid eluted) [A15] | binds |
| SVHGAFLDSFFPWAADGPHGRGRLTSF (acid eluted) [A16] | binds |

Target: T2, mimetope peptide 7E11-9.5
Experiment: phage panning of TSAR-9 library on plate-bound 7E11-9.5 peptide
Description: Next, the mimetope peptide was used to isolate abtides from a peptide library. Fifty to one hundred microliters of the solution of this peptide was used to coat the wells of a 96-well plate, the wells were blocked with 0.5% BSA in PBS, and the wells were used for screening. An aliquot of the TSAR-9 random phage library (containing approximately 3×10¹⁰ phage particles) was used as in the initial screening, and 4 rounds of screening were performed. After the first two rounds, the phage were amplified. Two more rounds of screening were then performed. By this procedure, phage from the TSAR-9 library that expressed peptides capable of binding to the 7E11-9.5 mimetope peptide were identified and isolated. The peptides containing the binding domains of these phage are abtides and were discovered to mimic the binding specificities of monoclonal antibody 7E11-C5. These abtides are termed “7E11-C5 abtides.”

| Binder | binding result |
| --- | --- |
| RCSPIWGISYPFGLLSSNPGVCHSSDAETNIRNDILTT [7E11-C5 abtide clone 13] | binds |
| GHSNYCFVSTLGMPIVGFPSINARGLIHYGGSDPRLAA [7E11-C5 abtide clone 16] | binds |

Target: T1, PEM peptide
Experiment: phage panning on PEM peptide, D38 library, stringent acid elution
Description: as §1

| Binder | binding result |
| --- | --- |
| STCIGAEGEWKSFHNFLQCRDATSTSSSTLDPTALRFG (stringent acid elution) [V27] | binds |
| GDAYGGIFSRPRQGLADSYIHASYTGKHFFRGPRPPTR (stringent acid elution) [V32] | binds |
| PLTSGSSSEYRNRDDCPVYKYATNCPRLNFSPSRYSPF (stringent acid elution) [V45] | binds |
| YSATLWDQFGSRQVELWSNRHASSALPFASRASVLGSR (stringent acid elution) [V40] | binds |

Target: T1, PEM peptide
Experiment: phage panning on PEM peptide, DC43 library, stringent acid elution
Description: as §1

| Binder | binding result |
| --- | --- |
| WSIGTHTGPEGKFRIPCDRSGCGGTTLTHGGLNSSPTGQHERP (stringent acid elution) [V44] | binds |
| DPCEDGYWLSSVGRAGASIRGCGAIRRSSRTLTAEYSTRASNH (stringent acid elution) [V39] | binds |
| NVMWSSSKAGIRDCSQVPPGGCGPVNRHRASPPLTPFRHGSIR (stringent acid elution) [V4] | binds |
| SSASSGCLGRAEHLDLDSVWGCGSQADMSRRYSPWYGRPRTGV (stringent acid elution) [V7] | binds |
| GSKRSCWGTTISNYFRPVPEGCGSASSINPNTNTGRLPSLHRQ (stringent acid elution) [V10] | binds |
